# B1: F1*; the commonest letter at each place (parent)
# chain: GAGACCGCAACTGAAAAGTTGTTATCACTTGTCGTAAGACACTTTGGATGGGTTGAAGTTCTGCACGTAGAAGCAAAAGGC
# Variants of: B1
# Test: fraction ligated after 30 min (ligated reads / total reads); higher = more ligase activity
# Details: with F1*sub RNA substrate (template-directed ligation), 42 °C
# Procedure: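 Chip-synthesised pool of F1* ligase ribozyme variants (all single and double substitutions, single, double and triple deletions in the catalytic core and GAA bulge, plus designed variants) was transcribed with T7 and reacted as a pool with excess substrate F1*sub for 30 min at 42 C in 50 mM EPPS pH 8.5, 25 mM MgCl2. Ligated and unligated bands were separated by PAGE, barcoded by RT and deep sequenced; fraction ligated = ligated reads / total reads per variant, relative activity = FL / FL of wild type (0.826). Sequences are the DNA template of the ribozyme.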
row,Variant,fraction ligated
1,GAGACCGCAACTGAAAAGTTGTTATCAATTGTCGTAAGACACTTTGGATAGGTTGAAGTTCTGCACGTAGAAGCAAAAGGC,0.154
2,GAGACCGCAACTGAAAAGTTGTTATCAATTGTCGTAAGACACTTTGGATTGGTTGAAGTTCTGCACGTAGAAGCAAAAGGC,0.517
3,GAGACCGCAACTGAAAAGTTGTTATCAATTGTCGTAAGACACTTTGGATCGGTTGAAGTTCTGCACGTAGAAGCAAAAGGC,0.163
4,GAGACCGCAACTGAAAAGTTGTTATCAATTGTCGTAAGACACTTTTGATGGGTTGAAGTTCTGCACGTAGAAGCAAAAGGC,0.803
5,GAGACCGCAACTGAAAAGTTGTTATCAATTGTCGTAAGACACTTTCGATGGGTTGAAGTTCTGCACGTAGAAGCAAAAGGC,0.79
6,GAGACCGCAACTGAAAAGTTGTTATCAATTGTCGTAAGACACTTTAGATGGGTTGAAGTTCTGCACGTAGAAGCAAAAGGC,0.829
7,GAGACCGCAACTGAAAAGTTGTTATCAATAGTCGTAAGACACTTTGGATGGGTTGAAGTTCTGCACGTAGAAGCAAAAGGC,0.8
8,GAGACCGCAACTGAAAAGTTGTTATCAATCGTCGTAAGACACTTTGGATGGGTTGAAGTTCTGCACGTAGAAGCAAAAGGC,0.804
9,GAGACCGCAACTGAAAAGTTGTTATCAATGGTCGTAAGACACTTTGGATGGGTTGAAGTTCTGCACGTAGAAGCAAAAGGC,0.808
10,GAGACCGCAACTGAAAAGTTGTTATCAATTGTCGTAAGACACTTTGTATGGGTTGAAGTTCTGCACGTAGAAGCAAAAGGC,0.361
11,GAGACCGCAACTGAAAAGTTGTTATCAATTGTCGTAAGACACTTTGCATGGGTTGAAGTTCTGCACGTAGAAGCAAAAGGC,0.302
12,GAGACCGCAACTGAAAAGTTGTTATCAATTGTCGTAAGACACTTTGAATGGGTTGAAGTTCTGCACGTAGAAGCAAAAGGC,0.75
13,GAGACCGCAACTGAAAAGTTGTTATCAATTGTGGTAAGACACTTTGGATGGGTTGAAGTTCTGCACGTAGAAGCAAAAGGC,0.813
14,GAGACCGCAACTGAAAAGTTGTTATCAATTGTAGTAAGACACTTTGGATGGGTTGAAGTTCTGCACGTAGAAGCAAAAGGC,0.818
15,GAGACCGCAACTGAAAAGTTGTTATCAATTGTTGTAAGACACTTTGGATGGGTTGAAGTTCTGCACGTAGAAGCAAAAGGC,0.829
16,GAGACCGCAACTGAAAAGTTGTTATCAATTGTCGTAAAACACTTTGGATGGGTTGAAGTTCTGCACGTAGAAGCAAAAGGC,0.789
17,GAGACCGCAACTGAAAAGTTGTTATCAATTGTCGTAACACACTTTGGATGGGTTGAAGTTCTGCACGTAGAAGCAAAAGGC,0.814
18,GAGACCGCAACTGAAAAGTTGTTATCAATTGTCGTAATACACTTTGGATGGGTTGAAGTTCTGCACGTAGAAGCAAAAGGC,0.799
19,GAGACCGCAACTGAAAAGTTGTTATCAATTGTCGTTAGACACTTTGGATGGGTTGAAGTTCTGCACGTAGAAGCAAAAGGC,0.811
20,GAGACCGCAACTGAAAAGTTGTTATCAATTGTCGTCAGACACTTTGGATGGGTTGAAGTTCTGCACGTAGAAGCAAAAGGC,0.806
21,GAGACCGCAACTGAAAAGTTGTTATCAATTGTCGTGAGACACTTTGGATGGGTTGAAGTTCTGCACGTAGAAGCAAAAGGC,0.795
22,GAGACCGCAACTGAAAAGTTGTTATCAATTGTCGTAAGACACTTTGGATGGGTTGAAGTTCTGCACGTAGAAGCAAAAGGC,0.809
23,GAGACCGCAACTGAAAAGTTGTTATCAATTGTCGTAAGACACTTTGGATGGGTTGCAGTTCTGCACGTAGAAGCAAAAGGC,0.718

row,Variant,fraction ligated
1,GAGACCGCAACTGAAAAGTTGTTATCAATTGTCGTAAGACACTTTGGATGGGTTGGAGTTCTGCACGTAGAAGCAAAAGGC,0.681
2,GAGACCGCAACTGAAAAGTTGTTATCAATTGTCGTAAGACACTTTGGATGGGTTGTAGTTCTGCACGTAGAAGCAAAAGGC,0.784
3,GAGACCGCAACTGAAAAGTTGTTATCAATTGTCGTAAGATACTTTGGATGGGTTGAAGTTCTGCACGTAGAAGCAAAAGGC,0.773
4,GAGACCGCAACTGAAAAGTTGTTATCAATTGTCGTAAGAGACTTTGGATGGGTTGAAGTTCTGCACGTAGAAGCAAAAGGC,0.824
5,GAGACCGCAACTGAAAAGTTGTTATCAATTGTCGTAAGAAACTTTGGATGGGTTGAAGTTCTGCACGTAGAAGCAAAAGGC,0.809
6,GAGACCGCAACTGAAAAGTTGTTATCAAATGTCGTAAGACACTTTGGATGGGTTGAAGTTCTGCACGTAGAAGCAAAAGGC,0.798
7,GAGACCGCAACTGAAAAGTTGTTATCAAGTGTCGTAAGACACTTTGGATGGGTTGAAGTTCTGCACGTAGAAGCAAAAGGC,0.814
8,GAGACCGCAACTGAAAAGTTGTTATCAACTGTCGTAAGACACTTTGGATGGGTTGAAGTTCTGCACGTAGAAGCAAAAGGC,0.828
9,GAGACCGCAACTGAAAAGTTGTTATCTCTTGTCGTAAGACACTTTGGAGGGGTTGAAGTTCTGCACGTAGAAGCAAAAGGC,0.287
10,GAGACCGCAACTGAAAAGTTGTTATCTCTTGTCGTAAGACACTTTGGACGGGTTGAAGTTCTGCACGTAGAAGCAAAAGGC,0.512
11,GAGACCGCAACTGAAAAGTTGTTATCTCTTGTCGTAAGACACTTTGGAAGGGTTGAAGTTCTGCACGTAGAAGCAAAAGGC,0.76
12,GAGACCGCAACTGAAAAGTTGTTATCAATTTTCGTAAGACACTTTGGATGGGTTGAAGTTCTGCACGTAGAAGCAAAAGGC,0.826
13,GAGACCGCAACTGAAAAGTTGTTATCAATTATCGTAAGACACTTTGGATGGGTTGAAGTTCTGCACGTAGAAGCAAAAGGC,0.84
14,GAGACCGCAACTGAAAAGTTGTTATCAATTCTCGTAAGACACTTTGGATGGGTTGAAGTTCTGCACGTAGAAGCAAAAGGC,0.831
15,GAGACCGCAACTGAAAAGTTGTTATCAATTGTCCTAAGACACTTTGGATGGGTTGAAGTTCTGCACGTAGAAGCAAAAGGC,0.779
16,GAGACCGCAACTGAAAAGTTGTTATCAATTGTCATAAGACACTTTGGATGGGTTGAAGTTCTGCACGTAGAAGCAAAAGGC,0.812
17,GAGACCGCAACTGAAAAGTTGTTATCAATTGTCTTAAGACACTTTGGATGGGTTGAAGTTCTGCACGTAGAAGCAAAAGGC,0.808
18,GAGACCGCAACTGAAAAGTTGTTATCAATTGTCGTAAGACACTTTGGATGGGTTCAAGTTCTGCACGTAGAAGCAAAAGGC,0.19
19,GAGACCGCAACTGAAAAGTTGTTATCAATTGTCGTAAGACACTTTGGATGGGTTAAAGTTCTGCACGTAGAAGCAAAAGGC,0.793
20,GAGACCGCAACTGAAAAGTTGTTATCAATTGTCGTAAGACACTTTGGATGGGTTTAAGTTCTGCACGTAGAAGCAAAAGGC,0.8
21,GAGACCGCAACTGAAAAGTTGTTATCAATTGTCGTAAGACAGTTTGGATGGGTTGAAGTTCTGCACGTAGAAGCAAAAGGC,0.81
22,GAGACCGCAACTGAAAAGTTGTTATCAATTGTCGTAAGACATTTTGGATGGGTTGAAGTTCTGCACGTAGAAGCAAAAGGC,0.823
23,GAGACCGCAACTGAAAAGTTGTTATCAATTGTCGTAAGACAATTTGGATGGGTTGAAGTTCTGCACGTAGAAGCAAAAGGC,0.803

row,Variant,fraction ligated
1,GAGACCGCAACTGAAAAGTTGTTATCTCTTGTCGTAAGACACTTGGGATGGGTTGAAGTTCTGCACGTAGAAGCAAAAGGC,0.16
2,GAGACCGCAACTGAAAAGTTGTTATCAATTGGCGTAAGACACTTTGGATGGGTTGAAGTTCTGCACGTAGAAGCAAAAGGC,0.812
3,GAGACCGCAACTGAAAAGTTGTTATCAATTGACGTAAGACACTTTGGATGGGTTGAAGTTCTGCACGTAGAAGCAAAAGGC,0.836
4,GAGACCGCAACTGAAAAGTTGTTATCAATTGCCGTAAGACACTTTGGATGGGTTGAAGTTCTGCACGTAGAAGCAAAAGGC,0.756
5,GAGACCGCAACTGAAAAGTTGTTATCAATTGTCGTAAGGCACTTTGGATGGGTTGAAGTTCTGCACGTAGAAGCAAAAGGC,0.798
6,GAGACCGCAACTGAAAAGTTGTTATCAATTGTCGTAAGCCACTTTGGATGGGTTGAAGTTCTGCACGTAGAAGCAAAAGGC,0.802
7,GAGACCGCAACTGAAAAGTTGTTATCAATTGTCGTAAGTCACTTTGGATGGGTTGAAGTTCTGCACGTAGAAGCAAAAGGC,0.794
8,GAGACCGCAACTGAAAAGTTGTTATCAATTGTCGTAAGACACTTTGGATGGGTTGAGGTTCTGCACGTAGAAGCAAAAGGC,0.8
9,GAGACCGCAACTGAAAAGTTGTTATCAATTGTCGTAAGACACTTTGGATGGGTTGACGTTCTGCACGTAGAAGCAAAAGGC,0.776
10,GAGACCGCAACTGAAAAGTTGTTATCAATTGTCGTAAGACACTTTGGATGGGTTGATGTTCTGCACGTAGAAGCAAAAGGC,0.789
11,GAGACCGCAACTGAAAAGTTGTTATCAATTGTCGTAAGACACTTTGGCTGGGTTGAAGTTCTGCACGTAGAAGCAAAAGGC,0.477
12,GAGACCGCAACTGAAAAGTTGTTATCAATTGTCGTAAGACACTTTGGGTGGGTTGAAGTTCTGCACGTAGAAGCAAAAGGC,0.784
13,GAGACCGCAACTGAAAAGTTGTTATCAATTGTCGTAAGACACTTTGGTTGGGTTGAAGTTCTGCACGTAGAAGCAAAAGGC,0.424
14,GAGACCGCAACTGAAAAGTTGTTATCAATTGTCGTAAGACCCTTTGGATGGGTTGAAGTTCTGCACGTAGAAGCAAAAGGC,0.794
15,GAGACCGCAACTGAAAAGTTGTTATCAATTGTCGTAAGACGCTTTGGATGGGTTGAAGTTCTGCACGTAGAAGCAAAAGGC,0.779
16,GAGACCGCAACTGAAAAGTTGTTATCAATTGTCGTAAGACTCTTTGGATGGGTTGAAGTTCTGCACGTAGAAGCAAAAGGC,0.827
17,GAGACCGCAACTGAAAAGTTGTTATCAATTGTCGCAAGACACTTTGGATGGGTTGAAGTTCTGCACGTAGAAGCAAAAGGC,0.807
18,GAGACCGCAACTGAAAAGTTGTTATCAATTGTCGAAAGACACTTTGGATGGGTTGAAGTTCTGCACGTAGAAGCAAAAGGC,0.792
19,GAGACCGCAACTGAAAAGTTGTTATCAATTGTCGGAAGACACTTTGGATGGGTTGAAGTTCTGCACGTAGAAGCAAAAGGC,0.812
20,GAGACCGCAACTGAAAAGTTGTTATCAATTGTCGTATGACACTTTGGATGGGTTGAAGTTCTGCACGTAGAAGCAAAAGGC,0.801
21,GAGACCGCAACTGAAAAGTTGTTATCAATTGTCGTACGACACTTTGGATGGGTTGAAGTTCTGCACGTAGAAGCAAAAGGC,0.779
22,GAGACCGCAACTGAAAAGTTGTTATCAATTGTCGTAGGACACTTTGGATGGGTTGAAGTTCTGCACGTAGAAGCAAAAGGC,0.793
